The labels stand for the following.
B1: FGFR3 kinase domain variant E466K (domain or fragment)
chain: SELELPADPKWKLSRARLTLGKPLGEGCFGQVVMAEAIGIDKDRAAKPVTVAVKMLKDDATDKDLSDLVSEMEMMKMIGKHKNIINLLGACTQGGPLYVLVEYAAKGNLREFLRARRPPGLDYSFDTCKPPEEQLTFKDLVSCAYQVARGMEYLASQKCIHRDLAARNVLVTEDNVMKIADFGLARDVHNLDYYKKTTNGRLPVKWMAPEALFDRVYTHQSDVWSFGVLLWEIFTLGGSPYPGIPVEELFKLLKEGHRMDKPANCTHDLYMIMRECWHAAPSQRPTFKQLVEDLDRVLTVTSTDEYLDLSAPFE
notes: FGFR3 kinase domain, amino acids 455-768 of human FGFR3, disease-linked (cancer) mutation E466K; also called FGFR3^E466K; source: E. coli C41 (DE3), co-expressed with lambda phosphatase, purified (HisTrap, HiTrap Q, Superdex 200)
B2: FGFR3 kinase domain variant I538F (domain or fragment)
chain: B1 chain with K12E, I84F
notes: FGFR3 kinase domain, amino acids 455-768 of human FGFR3, disease-linked (cancer) mutation I538F; pJ821 construct; 15N labelled for NMR; also called FGFR3^I538F; GFR3^I538F; source: E. coli C41 (DE3), co-expressed with lambda phosphatase, purified (HisTrap, HiTrap Q, Superdex 200); not shown: His-SUMO, N-terminal, cleaved
B3: FGFR3 kinase domain variant N540K (domain or fragment)
chain: B1 chain with K12E, N86K
notes: FGFR3 kinase domain, amino acids 455-768 of human FGFR3, disease-linked mutation N540K; pJ821 construct; also called FGFR3^N540K; source: E. coli C41 (DE3), co-expressed with lambda phosphatase, purified (HisTrap, HiTrap Q, Superdex 200); not shown: His-SUMO, N-terminal, cleaved
B4: non-phosphorylated Cdc37 (natural protein)
chain: MVDYSVWDHIEVSDDEDETHPNIDTASLFRWRHQARVERMEQFQKEKEELDRGCRECKRKVAECQRKLKELEVAEGGKAELERLQAEAQQLRKEERSWEQKLEEMRKKEKSMPWNVDTLSKDGFSKSMVNTKPEKTEEDSEEVREQKHKTFVEKYEKQIKHFGMLRRWDDSQKYLSDNVHLVCEETANYLVIWCIDLEVEEKCALMEQVAHQTIVMQFILELAKSLKVDPRACFRQFFTKIKTADRQYMEGFNDELEAFKERVRGRAKLRIEKAMKEYEEEERKKRLGPGGLDPVEVYESLPEELQKCFDVKDVQMLQDAISKMDPTDAKYHMQRCIDSGLWVPNSKASEAKEGEEAGPGDPLLEAVPKTGDEKDVSV
notes: human Hsp90 co-chaperone Cdc37, expressed from pET28 (gift of C. Vaughan; Vaughan et al., 2006), not phosphorylated; Used in ITC and in the auto-phosphorylation assay and in the comparison with the phosphorylated form; No tag removal step is described; also called CDC37^Apo; Cdc37^Apo; source: E. coli C41 (DE3), purified (HisTrap, HiTrap Q, Superdex 200)

Common to all, as to details: both partners purified
In one assay the target is T1, Hsp90α (human, UniProt P07900 1-732).
T1 construct: human Hsp90α, expressed from pRSET (gift of C. Vaughan; Vaughan et al., 2006); Used at a 2:1:1 ratio to Cdc37 and kinase; source: E. coli C41 (DE3), purified (HisTrap, HiTrap Q, Superdex 200)
As to the kind of experiment: SEC; ternary mixture: 15 μM kinase, 15 μM Cdc37, 30 μM Hsp90α (1:1:2), 15 min at 4 °C; Superdex 200 Increase, 25 mM Tris.Cl, 150 mM NaCl, 1 mM TCEP, pH 8.0, 4 °C; fractions by SDS-PAGE and ELISA.

For the assay “non-phosphorylated Cdc37”, the target named is B4. As to the kind of experiment: ITC; kinase domain in the cell (FGFR3 WT 19.4 μM, FGFR3 I538F 16.9 μM), Cdc37 Apo 211.7 μM in the syringe; 25 mM Tris.Cl, 50 mM NaCl, 5 mM MgCl2, 0.1 mM TCEP, pH 7.5, 20 °C; single site model.
The target in assay [1] is B2. The description is as above.

Positions count from the first letter of the chain named. Numbers in names are those of the source.

On to B1, for which the binding result in the assay with Hsp90α is listed as “binds”.
In the assay with non-phosphorylated Cdc37, B2 displayed a Kd of 1800 nM. Besides, the binding result in the assay with Hsp90α was “binds”.
For B3, in the assay with Hsp90α, the binding result is “binds”.
Turning to B4, the “stoichiometry N” value in assay [1] was found to be 1.

These data come from paper PMC5846801, “Disease Variants of FGFR3 Reveal Molecular Basis for the Recognition and Additional Roles for Cdc37 in Hsp90 Chaperone System” (Structure(London, England:1993), 2018).
